Test results reported in US20240100133.

Test system: Granzyme A wild type, recombinant human, His-tagged (GzmA-WT)
Sequence (chain, as listed by the source): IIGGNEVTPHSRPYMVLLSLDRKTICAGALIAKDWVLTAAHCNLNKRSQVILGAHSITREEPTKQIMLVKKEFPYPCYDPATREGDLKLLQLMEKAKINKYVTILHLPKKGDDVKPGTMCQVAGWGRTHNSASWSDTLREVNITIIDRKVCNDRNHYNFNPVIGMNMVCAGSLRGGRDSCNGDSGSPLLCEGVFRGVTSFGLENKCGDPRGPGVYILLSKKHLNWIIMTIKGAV

human recombinant PDIA1 (Protein Disulfide Isomerase A1, residues 18-479, N-terminal His-tag), sequence (chain, as listed by the source): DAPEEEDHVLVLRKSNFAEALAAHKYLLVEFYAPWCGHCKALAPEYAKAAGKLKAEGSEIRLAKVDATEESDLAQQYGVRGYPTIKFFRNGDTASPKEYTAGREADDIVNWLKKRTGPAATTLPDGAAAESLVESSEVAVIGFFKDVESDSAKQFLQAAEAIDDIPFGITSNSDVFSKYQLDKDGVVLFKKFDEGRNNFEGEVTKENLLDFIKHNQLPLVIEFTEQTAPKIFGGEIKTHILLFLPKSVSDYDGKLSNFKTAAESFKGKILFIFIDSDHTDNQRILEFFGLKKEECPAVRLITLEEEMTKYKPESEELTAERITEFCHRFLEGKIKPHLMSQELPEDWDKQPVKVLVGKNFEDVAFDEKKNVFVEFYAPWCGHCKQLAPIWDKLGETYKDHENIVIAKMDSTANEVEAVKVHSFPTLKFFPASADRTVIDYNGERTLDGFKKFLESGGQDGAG

human recombinant PDIA1 (Protein Disulfide Isomerase A1, residues 18-479, N-terminal His-tag)
conversion of GzmA homodimer into the 27 kDa monomer (silver stain and anti-GzmA western blot): they incubated GzmA-WT with PDIA1 and observed the monomeric band at 27 KDa, which was not present when heat-inactivated PDIA1 was used
